Results as given in patent US12077566.

Target: EGFR extracellular domain (with an amino acid sequence of 25-645) (human) (UniProt P00533)
Assay: SPR, Biacore T200; EGFR extracellular domain on CM5 chip, rLZ-8 protein as analyte

rLZ-8 (D20H/E68K) (from UniProt P14945 1-111)
Kd: 6.43 nM
